{"source": "patent US20170306002A1", "about": "(UNITED STATES OF AMERICA AS REPESENTED BY THE SECRETARY …, published 2017)", "binders": {"B1": {"name": "mAb CD6 (whole IgG) (antibody, V domains shown)", "VH": "QVKLQESGGGLVQPKGSLKLSCAASGFTFNTYAMNWVRQAPGKGLEWVARIRSKSNNYATFYADSVKDRFTISRDDSQSMLYLQMHNLKTDDTAMYYCVRPSIYYYASGYLDVWGAGTTVTVSS", "VL": "QIVLSQSPAILSASPGEKVTMTCRTSSSVSYMHWYQQKPGSSPKPWIYATSNLASGVPFRFSGSGSGTSYSLTISRVEAEDAATYYCQQWNSNPPTFGGGTKLEIKR"}}, "biological_target": "recombinant CA/09 NA protein (baculovirus, with N-terminal His-tag, tetramerization domain and thrombin site) (human; influenza A virus …, UniProt P50552 336-380)", "sequence (P50552 336-380)": "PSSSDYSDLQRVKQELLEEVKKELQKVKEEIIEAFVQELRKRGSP", "data": [{"binder": "B1", "values": [{"measurement": "Kd", "result": "~95", "unit": "nM"}]}]}
